A protein production outcome set (Wang et al. 2014)

Experiment: label from the status in PepcDB records

## ATTMEQETCAHSLTFEECPKCSALQYRNGFYLLKYDEEWYPEELLTDGEDDVFDPELDMEVVFELQGNSTSSDKNNSSSEGNEGVIINNFYSNQYQNSIDLSANAAGSDPPRTYGQFSNLLSGAVNAFSNMLPLLADQNTEEMENLSDRVSQDTAGNTVTNTQSTVGRLVGYGTVHDGEHPASCADTASEKILAVERYYTFKVNDWTSTQKPFEYIRIPLPHVLSGEDGGVFGAALRRHYLVKTGWRVQVQCNASQFHAGSLLVFMAPEYPTLDAFAMDNRWSKDNLPNGTRTQTNKKGPFAMDHQNFWQWTLYPHQFLNLRTNTTVDLEVPYVNIAPTSSWTQHASWTLVIAVVAPLTYSTGASTSLDITASIQPVRPVFNGLRHETLSRQ
  protein production: not failed

## MDLYLDPSILIILIVFGFVAAFIDSVVGGGGLIALPALLFTGLNPASAVATNKLASTMGSATSNIVFYRSGNLNLKSAFKLVPLTFIGSIIGAWTVHLMNPEVLKPLMLIMLGAVAIYTIFKKDWGSISTHKKLSGRHVIIFTFFVFAIGFYDGFLGPGTGSFLMFSLLFIGYDFLKAAGNAKLLNLGSNVGALLMFMYVGQVNYAYGFIMGIAQIAGGIVGSKFAIKKGSGYVRALFITVTCLLLAKNLYDYIQ
  protein production: failed

## ILTTENQGVFTITLNRIDKKNALTNDMYKQLCQYFAYAEQTSSIHCVVIQGNEQCFCAGNDLHDFIQCSADDELAALAFVKVLSEFTKPLVAGVAGVAVGIGTTLLLHCDMVIAANNSKFKLPFTQLGLCPEAGSSLLLTQKVGPNKAFELMVLGQTFNAEQALSYGITNQTCQPDELLALTSDVAQAISNLPVESVMTSRRLIRQANKLALSQVISEESQAFSHLVKSEECKNILAKFFK
  protein production: failed

## MAAAVPQRAWTVEQLRSEQLPKKDIIKFLQEHGSDSFLAEHKLLGNIKNVAKTANKDHLVTAYNHLFETK
  protein production: not failed

## MWLRSYRITFSCLTRLKTYRSSWKKLYSTSQTVDSKEVKTFQALAHSWWDEQGKFAPLHSMNDLRVPFIRDNLLKTSTNHDPGKPLSGMKILDVGCGGGLLTEPLGRLGASVVGIDPVAENIKIAQHHKSFDPVLDKRIQYRVCSLEETLNENAECFDAVVASEVVEHVNNLEMFIQCCYQVLKPGGSLFITTVNKTQLSYVLGIVFSEQIAGIVPKGTHTWEKFVSPEKLESILEPNGLSVETVAGMVYNPFSGYWHWTENTSLNYAAHAVRARAQEHLEPAESA
  protein production: failed

## PLKRSLPPDTAITKTDRVTVKGEEVPYEVTTGTQPVYGDDDTAVASLHYTYYRRSDVDDRSGRPLMISFNGGPGSGSLWMHLGYTSPKHLLISDEGYPVQPYGVEDNNQSIIDVADIVYVNPVNTGFSRVIDDDTDAEQFFGVNADVDYLADWIDTFISRHGRWRSPKYLIGESYGTTRVAGLAGELQNSHWTYLNGVILVSPTGLGMEPAGPSPRSEALKLPYYAATAWYHEQLPDALQSRDLQALLSEVEDYTIEEYIPAVTRGGFVEDARRQAVAQQVARYSGLSEPFVLDHNLAVPADAFWKELLQDEGRTVGRLDSRYEGIDVTNAGSEYDYPAELTAWNHAFTPAINHYLRDDLGFTTDLQYNTFGNVYPWDETENNTGAQLREAMAQNPYLHVMVQSGYYDGATDYFSAKYVMWNLGTRETMRDRLRFEGYRSGHMMYLRSEDLATSNEDIRTFIEESIPDEGTPARYGRNR
  protein production: failed

## MPSSILSESMIQAFFWSLITIGMYFITQKLYRRWPFWWLMPLALTPILVASVVLLLHVNYQDYFRGTKWLVLLIGPATVAFAIPIYEKRALIRQHWPVLLIGVIVGSFTAIASSWGLAILLGLDDNLRLSLLPRSISTPFAIEISRGIGAAPDLTAIFVIVTGILGAILGEFILSRLPFNSALARGALLGVGAHAAGTAQAHKIGNTEGAIASLAMILVGLFNILLLPLISYLLK
  protein production: failed

## PIEGEKVDLRIMSTTDLHTNLVNYDYYQDKESQKIGLAKTAVLIEEAKKENPNTVLVDNGDVIQGTPLGTYKAIVKPVAENEEHPMYQAMNALGYDASTLGNHEFNYGLDYLKKIIATANLPILNANVLDFKTHQPVFKTYDIITKTFKDSTGRAVALNIGITGIVPPQILNWDKANLEGKVIVKDSVKAIEEIVPTMRAKGADVILVLSHSGIGDDRYEEGEENVGYQIASIKGVDAVVTGHSHAEFPSGNGTGFYEKYTGVDGINGKINGTPVTMAGKYGDHLGIIDLGLSYTNGKWQVSESSAKIRKIDMNSTTADERIIALAKEAHDGTINYVRQ
  protein production: not failed

## MKPIRYTIAPAAPEAHLFTVTVTVDAPDPQGQRFSLPAWIPGSYMIREFARNIVRIEAMCGERAVRLAKLDKHTWQAAPCSGPLTVSYDVYAWDLSVRAAHLDPTHGFFNGTSVFLRVEGGEQVRCLVDIQPPAGDAYRGWRVATALREASGRVQGRVGAKRYGFGWYEAADYDELIDHPVEMGTFALVSFEACGAQHDAVFTGRVPNLDLERIARDFKRICEAQIRLFEPHTAAAPFLDSNRRYVFMTMVTTDGYGGLEHRASTALICARNDLPVTGRDETTEGYRTFLGLVSHEYFHTWNVKRIKPAVFVPYALDREVHTPLLWLFEGFTSYYDDLMLVRSGLISEAQYLEMLAKTWNGVLRGSGRLKQSVAESSFDAWTKYYRQDENAPNAIVSYYTKGSLVALALDLTIRTQTGGEHSLDDVMRALWAAGGRDFYAPGHAQRGVTEAELIALMEETTGLRLRTLVRQLAEGRDDPPLPALFKAIGVTATRKPAEAALGLGAKVGAENGFVKLLQVFDGGPAQRAGLSAGDLVVAVDGLRVLSGQLDKSLARHRAGDTVPVHVFRRDELMQLDVTLSADATPQFALALSAEPSPLRSAWLGKRAAARGARPAKSRSAA
  protein production: failed

## MRGKKRIGLLFLLIAVVVGGGGLLLAQKVLHKTSDTAFCLSCHSMSKPFEEYQGTVHFSNQKGIRAECADCHIPKSGMDYLFAKLKASKDIYHEFVSGKIDSDDKFEAHRQEMAETVWKELKATDSATCRSCHSFDAMDIASQSESAQKMHNKAQKDSETCIDCHKGIAHFPPEIKMDDNAAHELESQAATSVTNGAHIYPFKTSHIGELATVNPGTDLTVVDASGKQPIVLLQGYQMQGSENTLYLAAGQRLALATLSEEGIKALTVNGEWQADEYGNQWRQASLQGALTDPALADRKPLWQYAEKLDDTYCAGCHAPIAADHYTVNAWPSIAKGMGARTSMSENELDILTRYFQYNAKDITEKQ
  protein production: failed

## MLSVVSPNRSTARAARTPFWRRAAVGLCLLGVAMSGPLAAQDPAQVNTFIGSKDDGNTYPGASAPFGLIQVSPIGAHYAGWRYDDPSIRGFGHSFLSGAGCWEQGGQVSVLPVTGRIGPGGDFDTNDAKAFDQKRYAARYTHDGEVGQAGYYKVRLTDYGGIDAEASALTRAATERYTFAPGADTGHVLVNVAQANDRHVVIGSQLQIVGDRVVEGKLTTQSFCGGHEYTTWFRLEFDRPFTAHGVWGEEGGVPGARHGMGGELKPNGAWLSFPLGKDKNARAVTVVSAISHVDAQGARSNLRADGMQGGKLLSLEQMRQRAQNGWRNALASMQVEGASNDDRSVAYTALYHALLQPLTGSDADGRYRGYDDAIHRADGWTYYEYFSLWDTYRSQNQLLALLQPTRARDIGRSLLAIQQQGGWLPRWGYANFDTNIMTGDPVTPFLVDLWRFGALQGNEAEAYAALRQNAFGQPPINSRHAGRSGNANYLANGFVQYDRAFPSKGMDVDPHHGGSATLEYALADCALAQMAQALGHGEDAAQLRKRGGNWHRVWDADVRDAETGFAGFPRPRLEDGSWYAPSDDHYSPRSEHGFHEGTAWQYQWLVQQDIPGMLQAMHGSQQAGKRLDAFFAYDDLLKDPLTAARTHWVVGPYSYYNQYRYNPNNEPDLHAPWMYTLIGQPWKTATVVRAAQQLFTNAPNGVTGNDDLGTMSAWYLFSALGLYPAVPGSGQFLLHAPRFKRVTLNLGNGKRLRIDAPGADGRALQYVDNVRWNGKAQPQVFLDWAQLQQGGTLAFALTKQAPTQGWGTQADALPASFCATPQAQ
  protein production: failed

## MTATWEKKEGNEGLLTVTVPAEKVNKALDQAFKKVVKQINVPGFRKGKVPRPIFEQRFGVEALYQDAIDILLPDAYGEAIDETDIKPVAQPEVSVTQIEKGKDFIFEATVTVEPEVKLGDYKGLEIEKQETELSDDELQEAIDHSLGHLAEMVVKEDGVVENGDTVNIDFSGSVDGEEFEGGQAEGYDLEIGSGSFIPGFEEQLEGMKVDEEKDVVVTFPEEYHAEELAGKEATFKTKVNEIKFKEVPELTDEIANELDAEANTVDEYKENLRKRLAEQKATDAENVEKEEAITKATDNTTIDIPEAMVNTELDRMVSEFAQRIQQQGLDLQTYFQISGQDETQLREQMKDDAEQRVKTNLTLTAIAEAEKIEATDEDIDKELEKMSKQFNISVEDIKNTLGNTDIIKNDVRIQKVIDLLRDNAKFVEGTKED
  protein production: failed

## MAKKNKPTECPAGEKWAVPYADFLSLLLALFIALYAISAVNKSKVEALKTEFIKIFNYAPKPEAMQPVVVIPPDSGKEEEQMASESSKPASQNTETKATIARKGEGSVLEQIDQGSILKLPSNLLFENATSDAINQDMMLYIERIAKIIQKLPKRVHINVRGFTDDTPLVKTRFKSHYELAANRAYRVMKVLIQYGVNPNQLSFSSYGSTNPIAPNDSLENRMKNNRVEIFFSTDANDLSKIHSILDNEFNPHKQQE
  protein production: failed

## MSLKITKVEVIPISTPMKRAQLMRGATLARIDGVLLKLHSDEGLVGIADAGDTSSWYRGETQDSITSMICDFFAPKVLLGEDPTKIEKIVGRMDILTRDNNQAKATVDFALHDLVGKRFGVPVYQLLGGKTIERIPLGLVLGAGEPEAVAEEALAVLREGFHFVKLKAGGPLKADIAMVAEVRRAVGDDVDLFIDINGAWTYDQALTTIRALEKYNLSKIEQPLPAWDLDGMARLRGKVATPIYADESAQELHDLLAIINKGAADGLMIKTQKAGGLLKAQRWLTLARLANLPVICGCMVGSGLEASPAAHLLAANDWIAQFPQENAGPLHIHDCLNSRDIDNDIALNVPRFEGGYLYPNDGPGLGIELNEDLVRRLVTPGKAARVVTAEGHHHHHH
  protein production: not failed

## GEGTDAIQALIQAYFTAWNTNAPERFAEIFWPDGSWVNVVGMHWRGRDQIVFAHTAFLKTIFKDCKQELVTIEARTIAPGSALAVVTLIQDAYVTPDGRQMPRAHDRLTLLAVEREGVWRFIHGHNTIVNPDAANNDPVLRMKPA
  protein production: not failed

## MATIAAADRTVTSVRPAELGVKVVIVMALLLIVMLIFAYKVVSLHNMKDEPFWAAYGLIITAFIFTRFGLAALYRPPRRDTGNYWPVVAIIVPAYNEPDIARTLLHCVGVDYPRELLRVVVVDDKSSDDTLRRITDFAAEHPNLTVIPHEVNGGKRRAMATGMAAADDADLFVFIDSDSQVTRDAIRVIASYFADSSVGAVCGHTDVTNISHNILTRMQAMQYYIAFRIYKSAEALFGSVTCCSGCFSAYRADAVRPVADKWLNQTFLGRPSTFGDDRSLTNYLLRDWRVLYAPDAQAYTNVPEHLKQFLRQQLRWKKSWLREAPRAMCAVRRKNPVMVVMFALSIVLPLIAPQVVMRAFVVQPHFISQLPFWYFGGVAAIAVIYGLFYRLHRPVKRWYQGIFFTMFYTIILVLQMPYAMVTIRDSKWGTR
  protein production: failed

## MNSEWIWRLRARLGYGVARQLLGWPWLVKQPRAWQWMQGQFSRMANLGHRDAQAFYGHLLLFRGQGFGAREEGLRLLRLAASAGDGKSAYQLGVQALKGDSRQAPDALAASRHWALAAEAGHPLAARKLAELYRDGGPGLAPDSERAEHYAQRASALGLLEHHHHHH
  protein production: failed

## MPLRSAGSGKASRDAVHHPLFARSYARISVTAETRLGMGGVRDRLLAGLSGRVIEIGAGNGLNFAHYPGAVSEVVAIEPERLLRQLAVEAALRCDVPVDVVPGAAEALPVKSEAFDAAVVSLVLCSVRDVSRALGELRRVLRPGGTLRFFEHGAGGGRAMAATQRALDRTVWPRLNGGCHLTRDAVSAVREAGFELGPYRRMLLPEKGPRLPTSYCVLGTAWRPGSAD
  protein production: failed

## MDIVSVALQRYSTKAFDPSKKLTAEEADKIKTLLQYSPSSTNSQPWHFIVASTEEGKARVAKSAAGNYTFNERKMLDASHVVVFCAKTAMDDAWLERVVDQEDADGRFATPEAKAANDKGRRFFADMHRVSLKDDHQWMAKQVYLNVGNFLLGVAAMGLDAVPIEGFDAEVLDAEFGLKEKGYTSLVVVPVGHHSVEDFNAGLPKSRLPLETTLTEV
  protein production: not failed
